For this experiment, the target named is IL-2 receptors on the cell surface of human PBMC populations (Tregs, CD25^high T helper cells, NK cells, cytotoxic T cells). Put plainly: cell-based or functional assay.

Consider 7 substances from patent US20220226442A1.

Consider “IL-2-Fc fusion protein F42K/V69A/Q74P, (G4S)4 linker, IgG1 Fc N297G”, for which the Ratio (CD25^high T helper EC50 / Treg EC50) was found to be 15.9.
Same read-out and setting: the result for “IL-2-Fc fusion protein F42Q/V69A/Q74P, (G4S)4 linker, IgG1 Fc N297G” reads 25.9; that for “IL-2-Fc fusion protein K35E/V69A/Q74P, (G4S)4 linker, IgG1 Fc N297G”, 300.
Same read-out and setting: the result for “IL-2-Fc fusion protein R38E/V69A/Q74P, (G4S)4 linker, IgG1 Fc N297G” reads 9; that for “IL-2-Fc fusion protein R38N/V69A/Q74P, (G4S)4 linker, IgG1 Fc N297G”, 2820; that for “IL-2-Fc fusion protein R38Q/V69A/Q74P, (G4S)4 linker, IgG1 Fc N297G”, 28.4.
Take “irrelevant (non-binding) antibody with IL-2 N88D fused to its C-terminus”: the pSTAT5 EC50, Treg turned out to be 0.37 nM and the pSTAT5 Max. Signal, Treg (relative to V69A/Q74P IL-2-Fc) is 0.5.
